# Laboratory results published in patent US20220098328A1, “ANTIBODIES TO M(H)DM2/4 AND THEIR USE IN DIAGNOSING AND TREATING CANCER” (NomoCan Pharmaceuticals LLC, priority 2017, published 2022).
# Tests used:
# [1] = target: NMC-P3 peptide (SEQ ID NO:3), amino acids 475-491 of HDM2 (Homo sapiens, UniProt Q00987); test: Peptide-ELISA; type: binding; details: 5 μg/ml peptide on plate, OD 450 nm
# Method: Peptide-ELISA Methodology: 5 μg/ml of NMC-P1, NMC-P2 or NMC-P3 peptide antigen was dried onto a 96-well ELISA plate overnight. Plates were then blocked with 5% BSA in 1× phosphate-buffered saline (PBS) (100 μl/well) for 2 hours at room temperature. Microplate wells were then washed 5 times with 300 μl of ice cold 1×PBS. Appropriate dilutions of monoclonal antibodies NMC-103, NMC-204 or NMC-303 in 1% bovine serum albumin (BSA) in PBS solution were then incubated with their corresponding peptides (NMC-P1, NMC-P2 or NMC-P3, respectively) at room temperature. After 2 hours, wells were washed 5 times with 300 μl ice-cold PBS/well and 100 μl secondary antibody (HRP-labeled Goat anti-Mouse F(ab′)2 H&L cross-adsorbed secondary antibody (HRP-GaM F(ab′)2), ThermoFisher, Cat. No. A24524) diluted 1:2500 to 1:5000 in PBS-1% BSA solution were added and the incubation continued at room temperature. After 1 hour, the wells were washed again 5 times with 200 μl of ice-cold PBS and 50 μL of the TMB Substrate Solution (1-Step™ Ultra TMB-ELISA, ThermoFisher, Cat. No. 34028) were added to each well and color was allowed to develop for 30 minutes at room temperature. The reaction was stopped by addition of 50 μL of stop solution (ThermoFisher, Cat. No. SS04) to each well and absorbance of each well was read immediately for optical density (OD) at 450 nm.
# [2] = system: mouse Lewis Lung cancer LL/2 cells; test: LL/2 syngeneic mouse model of lung cancer; type: in vivo; details: LL/2 s.c. in C57BL/6 mice; 0.4 mg/kg i.p. 3 times a week for 3 weeks, started with tumor cell inoculation; by day 21
# Method: Methodology used (Syngeneic Mouse Models of lung, colon and pancreatic cancer): To investigate the anti-tumor effects of HDM2-specific antibodies on lung, colon and pancreatic tumors in vivo, three well-known syngeneic mouse models of lung, colon and pancreatic cancer were used (Sharma et al., 1999, J. Immunol. 163 (9):5020-5028; McIntyre, 2015, Bioassays 37(8):909-920; Li, et al., 2015, Sci. Rep. 5:7856). Subcutaneous tumors were prepared by implanting either mouse Lewis Lung cancer LL/2 cells (2.5×10^5 cells/mouse), mouse colon cancer MC-38 cells (5×10^5 cells/mouse) or mouse pancreatic cancer Panc-2 cells (2×10^6 cells/mouse) in the right flanks of 8-week-old female C57BL/6 mice (n=6-7). The mice were returned to their respective cages after tumor implantation. From day 7 after tumor implantation, the tumor volumes were measured 2 times/week with a digital caliper. In the case of MC-38 and Panc-2 study, treatment started when the tumors reached an average of 70-80 mm^3. In the case of LL/2 study, tumor cell inoculation and treatment were initiated simultaneously. Mice were micro-chipped and registered following tumor implantation. […]
molecule,measurement,setting,value
"NMC-204: mouse monoclonal antibody of the IgG3 isotype that binds to NMC-P2 (SEQ ID NO:2); VH SEQ ID NO:38, VL SEQ ID NO:39 (antibody, V domains shown, mAb NMC-204 Heavy Chain Variable Region; mAb NMC-204 Light Chain Variable Region) VH: EVQLQESGSVLVRPGASVKLSCKASGDTLSGSWMHWAMQRPGQGLEWIGEIHLNRGTTNYNEKFKGKATVTVDTSSSTAYVDLSSLTSEDSAVYYCARSPGFAYWGQGTLVTVSA VL: GIVMTQAAPSVPVTPGESVSISCRSSKSLLHSNGNSYLYWFLQRPGQSPQLLIYRMSNLASGVPDRFSGSGSGTAFTLRITRVEAEDVGVYYCMQHLEYPFTFGSGTKLEIK",binding to NMC-P3 peptide,[1],did not bind
same,tumor volume,[2],1446 mm^3
